For test [1], the target named is T1, hAng2 (Homo sapiens, UniProt O15123).
T1 sequence (O15123 19-496): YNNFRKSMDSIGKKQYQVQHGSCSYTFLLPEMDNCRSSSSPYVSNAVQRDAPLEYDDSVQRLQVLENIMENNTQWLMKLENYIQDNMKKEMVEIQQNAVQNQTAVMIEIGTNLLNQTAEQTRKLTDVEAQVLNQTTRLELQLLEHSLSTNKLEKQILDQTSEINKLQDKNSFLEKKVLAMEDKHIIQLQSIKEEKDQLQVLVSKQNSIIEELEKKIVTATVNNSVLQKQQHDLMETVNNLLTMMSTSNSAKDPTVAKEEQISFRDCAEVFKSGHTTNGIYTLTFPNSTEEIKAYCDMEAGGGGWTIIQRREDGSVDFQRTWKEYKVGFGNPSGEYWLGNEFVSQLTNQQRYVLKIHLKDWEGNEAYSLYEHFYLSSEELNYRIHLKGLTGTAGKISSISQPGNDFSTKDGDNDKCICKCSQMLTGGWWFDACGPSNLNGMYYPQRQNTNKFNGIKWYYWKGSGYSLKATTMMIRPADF
Description: OCTET affinity of humanized anti-Ang2 antibodies against hAng2. The class given is binding. The settings on record: OCTET, antibody fixed on AR2G biosensor, hAng2 50-0 nM, 1:1 binding model. The method, then:
The affinity of humanized anti-Ang2 antibody against hAng2 was measured using OCTET® system (ForteBio). Specifically, buffer and samples were measured in total 200 μl/well using Black 96-well plates (96 well F-type black plates, Greiner). The biosensor used for affinity measurements was hydrated for 10 min before measurement with AR2G tip (ForteBio OCTET®). After the hydration, humanized anti-Ang2 antibody was diluted in 10 mM sodium acetate, pH 6.0 buffer at a concentration of 10 μg/ml, fixed on AR2G biosensor, and blocked with 1M ethanolamine. The recombinant hAng2 was diluted to 50, 25, 12.5, 6.25, 3.125, and 0 nM with 1× kinetic buffer, and subjected to association for 300 sec and dissociation for 900 sec. For affinity measurement (KD), association rate (K-on) and dissociation rate (K-off) were analyzed by binding curve (global) and fitted to 1:1 binding model using OCTET® data analysis v9.0.0.10 program.
The affinities of humanized 2C8 antibodies to hAng2 were in Table 15.

The test system of test [2] is tumor vessels of LLC tumor. Nature of the test: Tumor vessel normalization (CD31, PDGFRβ immunofluorescence) in LLC tumors. The class given is in vivo, C57BL/6 mice. The settings on record: compared with Fc or Fc+Cpt. From the text: In order to investigate the changes in tumor vessels by 2C811 antibody, we obtained frozen sections of tumor samples and performed immunofluorescence analyses by staining with a blood vessel-specific marker, CD31, and pericyte-specific marker, PDGFRβ. In detail, the tumor samples were harvested from the mice from the experiment described in Example 8, which were fixed in 4% paraformaldehyde (PFA, Merck), dehydrated in 30% sucrose (Junsei), embedded in OCT compound (Leica), and sectioned using a cryostat (Leica). The resulting frozen sections were blocked for 1 hr using a Protein Blocking Buffer (DAKO). Then the sections were stained with hamster anti-CD31 antibody (1:200, Millipore®) and rat anti-PDGFRB antibody (1:200, eBioscience™) in PBS at 4° C. for 8 hrs. After washing 3 times with PBS, the sections were stained with ALEXA FLUOR® 488-conjugated anti-hamster IgG antibody and Alexa ALEXA FLUOR® 594-conjugated anti-rat IgG antibody (1:1000, Jackson Immunoresearch) in PBS for 1 hr at room temperature. After another 3 washes with PBS, the sections were mounted in fluorescence mounting medium (DAKO) using a coverslip (Marienfeld). The stained sections were imaged using LSM880 confocal microscope (Zeiss). […]

In test [3] the test system is choroidal neovascularization (CNV). Nature of the test: Laser-induced CNV model, subcutaneous injection: CNV inhibition. In kind it is in vivo, mice. The settings on record: 25 mg/kg subcutaneous at 1 day; 8 days after laser photocoagulation. The method, then: To determine the effect of subcutaneously injected 2C8H11 antibody in CNV inhibition, the subcutaneous administration of 2C8H11 antibody (25 mg/kg) was performed at 1 day after laser photocoagulation. As a control, Fc (25 mg/kg) was administered in a same manner to the mice. Anti-CD31 antibody (1:200, Millipore®) was used for the detection of endothelial cells of CNV, and CD31+CNV volumes of the RPE-choroid-sclera flat mounts were calculated using the MATLAB® Image Processing Toolbox™(Math Works) at 8 days after laser photocoagulation (FIG. 16A).

B1: 2C8H11: humanized anti-Ang2 human IgG1 antibody from mouse 2C8; VH SEQ ID NO: 55, VL SEQ ID NO: 56 (antibody, V domains shown)
VH: QVQLVQSGAEVKKPGASVKVSCKASGYTFTSYWMHWVRQAPGQGLEWMGMIDPSDSETRLNQKFKDRVTMTRDTSTSTVYMELSSLRSEDTAVYYCARRFYYGSDWYFDVWGQGTLVTVSS
VL: DIQLTQSPSFLSASVGDRVTITCKASQDVGTAVAWYQQKPGKAPKLLIYWASTRHTGVPSRFSGSGSGTEFTLTISSLQPEDFATYYCQQYSSYPLTFGQGTKVEIK
modifications: human IgG1 constant regions; VH; VL
Take B1: in test [1], the Kdis worked out at 1.4e-05 s⁻¹ and the Kon came out at 66000 M⁻¹ s⁻¹. In test [2], the “PDGFRβ+ pericyte coverage increase” value came out at 2.4 fold and the “tumor blood vessel (BV) density reduction” value is given as 56%. Also, in test [3], the “inhibition of CNV formation compared with Fc (CD31+ CNV volume)” value stood at 69.9%.

The values are drawn from US12331106B2, “Anti-angiopoietin-2 antibodies that induce Tie2 activation” (Institute for Basic Science, priority 2018, dated 2025).
